Here are results for 7 molecules from publication PMC10579536 (Research and Practice in Thrombosis and Haemostasis, 2023).

The chains are these.
B2: Recombinant human angiopoietin-2 (ligand, UniProt O15123 19-496, looked up)
chain: YNNFRKSMDSIGKKQYQVQHGSCSYTFLLPEMDNCRSSSSPYVSNAVQRDAPLEYDDSVQRLQVLENIMENNTQWLMKLENYIQDNMKKEMVEIQQNAVQNQTAVMIEIGTNLLNQTAEQTRKLTDVEAQVLNQTTRLELQLLEHSLSTNKLEKQILDQTSEINKLQDKNSFLEKKVLAMEDKHIIQLQSIKEEKDQLQVLVSKQNSIIEELEKKIVTATVNNSVLQKQQHDLMETVNNLLTMMSTSNSAKDPTVAKEEQISFRDCAEVFKSGHTTNGIYTLTFPNSTEEIKAYCDMEAGGGGWTIIQRREDGSVDFQRTWKEYKVGFGNPSGEYWLGNEFVSQLTNQQRYVLKIHLKDWEGNEAYSLYEHFYLSSEELNYRIHLKGLTGTAGKISSISQPGNDFSTKDGDNDKCICKCSQMLTGGWWFDACGPSNLNGMYYPQRQNTNKFNGIKWYYWKGSGYSLKATTMMIRPADF
B3: Tie-2/Fc (Fc fusion, human, UniProt Q02763 23-748, looked up)
chain: AMDLILINSLPLVSDAETSLTCIASGWRPHEPITIGRDFEALMNQHQDPLEVTQDVTREWAKKVVWKREKASKINGAYFCEGRVRGEAIRIRTMKMRQQASFLPATLTMTVDKGDNVNISFKKVLIKEEDAVIYKNGSFIHSVPRHEVPDILEVHLPHAQPQDAGVYSARYIGGNLFTSAFTRLIVRRCEAQKWGPECNHLCTACMNNGVCHEDTGECICPPGFMGRTCEKACELHTFGRTCKERCSGQEGCKSYVFCLPDPYGCSCATGWKGLQCNEACHPGFYGPDCKLRCSCNNGEMCDRFQGCLCSPGWQGLQCEREGIQRMTPKIVDLPDHIEVNSGKFNPICKASGWPLPTNEEMTLVKPDGTVLHPKDFNHTDHFSVAIFTIHRILPPDSGVWVCSVNTVAGMVEKPFNISVKVLPKPLNAPNVIDTGHNFAVINISSEPYFGDGPIKSKKLLYKPVNHYEAWQHIQVTNEIVTLNYLEPRTEYELCVQLVRRGEGGEGHPGPVRRFTTASIGLPPPRGLNLLPKSQTTLNLTWQPIFPSSEDDFYVEVERRSVQKSDQQNIKVPGNLTSVLLNNLHPREQYVVRARVNTKAQGEWSEDLTAWTLSDILPPQPENIKISNITHSSAVISWTILDGYSISSITIRYKVQGKNEDQHVDVKIKNATITQYQLKGLEPETAYQVDIFAENNIGSSNPAFSHELVTLPESQAPADLGGGKMLL
B4: Recombinant human angiopoietin-1 (ligand, UniProt Q15389 16-498, looked up)
chain: HIGCSNQRRSPENSGRRYNRIQHGQCAYTFILPEHDGNCRESTTDQYNTNALQRDAPHVEPDFSSQKLQHLEHVMENYTQWLQKLENYIVENMKSEMAQIQQNAVQNHTATMLEIGTSLLSQTAEQTRKLTDVETQVLNQTSRLEIQLLENSLSTYKLEKQLLQQTNEILKIHEKNSLLEHKILEMEGKHKEELDTLKEEKENLQGLVTRQTYIIQELEKQLNRATTNNSVLQKQQLELMDTVHNLVNLCTKEGVLLKGGKREEEKPFRDCADVYQAGFNKSGIYTIYINNMPEPKKVFCNMDVNGGGWTVIQHREDGSLDFQRGWKEYKMGFGNPSGEYWLGNEFIFAITSQRQYMLRIELMDWEGNRAYSQYDRFHIGNEKQNYRLYLKGHTGTAGKQSSLILHGADFSTKDADNDNCMCKCALMLTGGWWFDACGPSNLNGMFYTAGQNHGKLNGIKWHYFKGPSYSLRSTTMMIRPLDF

What all share (test): ELISA
In assay [1] the target is Recombinant human angiopoietin-2 (human) (UniProt O15123).
Assay [2] deals with Recombinant VWF fragment D’-D3-HPC4.
In assay [3] the target is B2.
The target of assay [4] is von Willebrand factor (plasma-derived) (human (endogenous in plasma), UniProt P04275 764-2813).
Assay [5] has as its target B3.
Assay [6] has as its target B2. The source holds these as a separate data set.
Assay [7] has as its target B4.

Read-outs that look alike come from different tables or passages of the source.

On to “Recombinant VWF fragment D’-D3-HPC4 (domain or fragment)”, for which the EC50 in assay [1] is 159 nM.

As for “Recombinant FVIII (from UniProt P00451 20-2351) (natural protein)”, the maximal percent inhibition of binding to Ang-2 in assay [2] is 77%.

B1: Recombinant VWF D4 domain fused to Fc (Fc fusion)
chain: PCVCTGSSTRHIVTFDGQNFKLTGSCSYVLFQNKEQDLEVILHNGACSPGARQGCMKSIEVKHSALSVELHSDMEVTVNGRLVSVPYVGGNMEVNVYGAIMHEVRFNHLGHIFTFTPQNNEFQLQLSPKTFASKTYGLCGICDENGANDFMLRDGTVTTDWKTLVQEWTVQRPGQTCQPILEEQCLVPDSSHCQVLLLPLFAECHKVLAPATFYAICQQDSCHQEQVCEVIASYAHLCRTNGVCVDWRTPDFCAMSCPPSLVYNHCEHGCPRHCDGNVSSCGDHPSEGCFCPPDKVMLEGSCVPEEACTQCIGEDGVQHQFLEAWVPDHQPCQICTCLSGRKVNCTTQPCPT
Turning to B1, the half-maximal effective concentration (EC50) in assay [3] came out at 18 ± 6 nM.

In turn, B2 registered an EC50 in assay [4] of 5.3 ± 1 nM. For the same molecule, the binding result in assay [5] is listed as “binds”.

With B3, the half-maximal effective concentration (EC50) in assay [6] and in assay [7] was 0.2 ± 0.1 nM each time.

Take B4: the binding result in assay [5] is reported as “binds”.

B5: Recombinant VWF A2 domain fused to Fc (Fc fusion)
chain: PGLLGVSTLGPKRNSMVLDVAFVLEGSDKIGEADFNRSKEFMEEVIQRMDVGQDSIHVTVLQYSYMVTVEYPFSEAQSKGDILQRVREIRYQGGNRTNTGLALRYLSDHSFLVSQGDREQAPNLVYMVTGNPASDEIKRLPGDIQVVPIGVGPNANVQELERIGWPNAPILIQDFETLPREAPDLVLQRCCSG
Consider B5, for which, in assay [3], the EC50 was determined as 36.7 ± 9.7 nM.
